This is an account of results in patent US20260109758A1 (BIOSION, published 2026).

The target in assay [1] is human IL4Rα on HEK293T-IL4R/STAT6/STAT6-Luc LB2 cells (human, UniProt P24394 26-825). The assay can be described thus: cell-based or functional assay.
The target in assay [2] is T1, recombinant human TSLP-his (human, UniProt Q969D9 29-159, biotin-labeled in the ELISAs).
T1 construct: In-house made; not shown: His tag at the C-terminus
The assay can be described thus: SPR Biacore; TSLP-his amine-coupled to CM5 chip, antibody as analyte; 1:1 Langmuir fit. As for the experimental part:
Un-reacted moieties on the biosensor surface were blocked with ethanolamine. Then, serially diluted purified bispecific antibodies and the controls (2-fold serial dilution in HBS-EP⁺ buffer starting at 100 nM) were respectively flowed onto the chip at a flow rate of 30 μL/min. The antigen-antibody association kinetics was followed for 4 minutes and the dissociation kinetics was followed for 13 minutes.
(In SPR one partner is held on a chip, and binding of the other changes the refractive index at the surface.)

The target in assay [3] is T1, recombinant human TSLP-his. The assay can be described thus: capture ELISA: antibody captured on anti-human IgG Fc F(ab')2, biotin human TSLP-his, SA-HRP. Here is the method: Briefly, 96-well micro plates were coated with 100 μL 2 μg/mL AffiniPure F(ab′)₂ Fragment Goat Anti-Human IgG, Fey fragment specific (Jackson Immuno Research, Cat #109-006-008) in PBS and incubated overnight at 4° C. Plates were washed 4 times with wash buffer (PBS+0.05% Tween-20, PBST) and then blocked with 200 μL/well blocking buffer (5% w/v non-fatty milk in PBST) for 2 hours at 37° C. […] After the final wash, the plates were incubated with 100 μL/well TMB (Innoreagents). The reaction was stopped 15 minutes later at room temperature with 50 μL/well 1M H₂SO₄, and the absorbance of each well was read on a microplate reader using dual wavelength mode with 450 nm for TMB and 630 nm as the reference wavelength. The OD (450-630) values were plotted against antibody concentration. Data was analyzed using Graphpad Prism and EC₅₀ values were reported.
For orientation: An ELISA detects its analyte on a solid surface through an enzyme-linked reagent.

The target of assay [4] is T2, recombinant human IL4Rα-his (human, UniProt P24394 26-231, limits assumed, biotin-labeled in the capture ELISA).
T2 construct: In-house made; not shown: His tag at the C-terminus
In words: SPR Biacore T200; antibody captured on anti-human IgG CM5 chip, IL4Rα-his as analyte; 1:1 Langmuir fit. The procedure, abridged:
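Antibodies captured on anti-human IgG CM5 chip (bispecifics at 66.67 nM, controls 10 μg/mL), then serially diluted recombinant human IL4Rα-his (C-terminal His tag) in HBS EP flowed at 30 μL/min. Association and dissociation curves fit to 1:1 Langmuir model.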

The target in assay [5] is T1, recombinant human TSLP-his. The assay can be described thus: competitive ELISA: antibody pre-mixed with biotin human TSLP-his; blocked binding to coated TSLPR-Fc/IL7Ra-Fc. Here is the method:
Briefly, 100 μL human TSLPR-Fc proteins (SEQ ID NO: 34-SEQ ID NO: 38 fusion, prepared in-house) at 1 μg/mL in PBS, and 100 μL human IL7Ra-Fc proteins (SEQ ID NO: 35-SEQ ID NO: 38 fusion, prepared in-house) at 1 μg/mL in PBS were coated on 96-well micro plates overnight at 4° C. The next day, plates were washed with wash buffer (PBS+0.05% Tween-20, PBST), and blocked with 5% w/v non-fatty milk in PBST for 2 hours at 37° C. Plates were then washed again using wash buffer.
After incubation at 37° C. for 40 minutes, plates were washed 4 times using wash buffer. […] Plates were washed again using wash buffer. Finally, TMB was added and the reaction was stopped using 1M H₂SO₄. The absorbance was read on a microplate reader using dual wavelength mode with 450 nm for TMB and 630 nm as the reference wavelength, then the OD (450-630) values were plotted against the antibody concentration. Data was analyzed using Graphpad Prism and IC₅₀ values were reported.

Assay [6] has as its target T2, recombinant human IL4Rα-his. The assay can be described thus: dual-binding ELISA: coated human IL4Rα-his, antibody titrated, detection with biotin human TSLP-his and SA-HRP; signal needs both antigens bound.

B1: BSI-502-004 (bispecific antibody, human IgG1, kappa)
heavy: DIQMTQSPSSLSASVGDRVTITCRTSENIYSYLAWYQQKPGKAPKFLVYNAKTLAEGVPSRFSGSGSGTDFTLTISSLQPEDFATYYCQHYYGPPTWTFGQGTKVEIKGGGGSGGGGSGGGGSGGGGSEVQLVESGGGLVQPGGSLRLSCAASGFTFSTYGMSWVRQAPGKGLVWVATINSNGGSTSYPDSVKGRFTISRDNAKNTLYLQMNSLRAEDTAVYYCARFFRFRNAMDYWGQGTLVTVSSGGGGSGGGGSQVQLVQSGAEVKKPGASVKVSCKASGYTFTTYWMHWVRQAPGQGLEWMGVIDPSDSDTTYNQKFKGRVTMTRDTSTSTVYMELSSLRSEDTAVYYCTRSLDGYYDYWGQGTLVTVSSASTKGPSVFPLAPSSKSTSGGTAALGCLVKDYFPEPVTVSWNSGALTSGVHTFPAVLQSSGLYSLSSVVTVPSSSLGTQTYICNVNHKPSNTKVDKKVEPKSCDKTHTCPPCPAPEAQGGPSVFLFPPKPKDTLYITREPEVTCVVVDVSHEDPEVKFNWYVDGVEVHNAKTKPREEQYNSTYRVVSVLTVLHQDWLNGKEYKCQVSNKALPAPIEKTISKAKGQPREPQVYTLPPSRDELTKNQVSLTCLVKGFYPSDIAVEWESNGQPENNYKTTPPVLDSDGSFFLYSKLTVDKSRWQQGNVFSCSVMHEALHNHYTQKSLSLSPG
light: DIQMTQSPSSLSASVGDRVTITCRPTENIYSYLAWYQQKPGKAPKLLIYFARTLAEGVPSRFSGSGSGTDFTLTISSLQPEDFATYYCQHHYGTPWTFGGGTKVEIKRTVAAPSVFIFPPSDEQLKSGTASVVCLLNNFYPREAKVQWKVDNALQSGNSQESVTEQDSKDSTYSLSSTLTLSKADYEKHKVYACEVTHQGLSSPVTKSFNRGEC
notes: hu1C5F12E9-V8 IgG with an anti-IL4R scFv (VL-VH) at the N-terminus of the heavy chain; AQQ and YTE already stand in the entry
As to B1, in assay [1], the “Inhibition on IL4 induced STAT6 phosphorylation (IC50, nM)” value worked out at 0.0318 nM and the “Inhibition on IL13 induced STAT6 phosphorylation (IC50, nM)” value was 0.0276 nM. Also, in assay [2], the Kd came out at 0.00342 nM, the koff turned out to be 1.71e-06 s⁻¹ and the kon came out at 499000 M⁻¹ s⁻¹. Besides, in assay [3], the EC50 was 0.103 nM. Moreover, in assay [4], the Kd was found to be 2.43 nM, the koff is 0.000453 s⁻¹ and the kon worked out at 186000 M⁻¹ s⁻¹. In addition, the IC50 in assay [5] was found to be 0.144 nM. Also, in assay [6], the EC50 came to 0.0652 nM.

In general, Kd refers to the equilibrium constant for the complex coming apart. By koff is commonly meant a measure of how fast the partners let go of each other. The term kon denotes a measure of how fast the partners come together. For orientation: EC50 means the midpoint of the concentration-response curve. For orientation: IC50 means the midpoint of a concentration-inhibition curve.
